In publication PMC3059592 (Virology, 2010):
Where “and” joins values, the source holds several entries; their conditions need not be identical. Equal entries are not always repeated.

Target: the molecule itself
Assay: sucrose density gradient centrifugation

B1: PIV-5 hemagglutinin-neuraminidase (HN) protein, mutant E37D (natural protein)
chain: MVAEDAPVRATCRVLFRTTTLIFLCTLLALSISILYDSLITQKQIMSQAGSTGSNSGLGSITDLLNNILSVANQIIYNSAVALPLQLDTLESTLLTAIKSLQTSDKLEQNCSWSAALINDNRYINGINQFYFSIAEGRNLTLGPLLNMPSFIPTATTPEGCTRIPSFSLTKTHWCYTHNVILNGCQDHVSSNQFVSMGIIEPTSAGFPFFRTLKTLYLSDGVNRKSCSISTVPGGCMMYCFVSTQPERDDYFSAAPPEQRIIIMYYNDTIVERIINPPGVLDVWATLNPGTGSGVYYLGWVLFPIYGGVIKGTSLWNNQANKYFIPQMVAALCSQNQATQVQNAKSSYYSSWFGNRMIQSGILACPLRQDLTNECLVLPFSNDQVLMGAEGRLYMYGDSVYYYQRSNSWWPMTMLYKVTITFTNGQPSAISAQNVPTQQVPRPGTGDCSATNRCPGFCLTGVYADAWLLTNPSSTSTFGSEATFTGSYLNTATQRINPTMYIANNTQIISSQQFGSSGQEAAYGHTTCFRDTGSVMVYCIYIIELSSSLLGQFQIVPFIRQVTLS
In the case of B1, the “stoichiometry N” value is reported as 2 and 4.
